This note sets out measurements from patent publication US20180214514A1 (GEORGETOWN UNIVERSITY, published 2018).

B1: MBP-tagged C66 fusion protein (C-terminal 66-amino acid FGF-binding domain of human BP3) (other, not shown: large carriers)
chain: APPKENPSERKTNEGKRKAALVPNEERPMGTGPDPDGLDGNAELTETYCAEKWHSLCNFFVNFWNG
notes: MBP fusion with an apparent molecular mass of 52 kDa; also called C66 fragment; C-terminal hBP3 region
B2: human recombinant FGFR1 Fc chimera (Fc fusion, UniProt P11362 22-376, looked up)
chain: RPSPTLPEQAQPWGAPVEVESFLVHPGDLLQLRCRLRDDVQSINWLRDGVQLAESNRTRITGEEVEVQDSVPADSGLYACVTSSPSGSDTTYFSVNVSDALPSSEDDDDDDDSSSEEKETDNTKPNRMPVAPYWTSPEKMEKKLHAVPAAKTVKFKCPSSGTPNPTLRWLKNGKEFKPDHRIGGYKVRYATWSIIMDSVVPSDKGNYTCIVENEYGSINHTYQLDVVERSPHRPILQAGLPANKTVALGSNVEFMCKVYSDPQPHIQWLKHIEVNGSKIGPDNLPYVQILKTAGVNTTDKEMEVLHLRNVSFEDAGEYTCLAGNSIGLSHHSAWLTVLEALEERPAVMTSPLYLE
notes: It was immobilized on a CM-5 SPR chip; not shown: Fc part of the chimera

In assay [1] the target is T1, human recombinant FGFR4 Fc Chimera (human, UniProt P22455 22-369).
T1 construct: Bought reagent; It was immobilized on ELISA plates and on a CM-5 SPR chip; also called FGF Receptor 4; fibroblast growth factor receptor 4; Fc part of the bought chimera not given
As to the kind of experiment: SPR, C66 over immobilized FGFR4 (FIG. 7B). As to the method: (§1) Biacore T200 instrument (GE Healthcare) was used for surface plasmon resonance measurements. Human recombinant FGFR4 or FGFR1 Fc chimera in HBS-P buffer (0.01 M HEPES pH 7.4, 0.15 M NaCl, 0.05% P-20) were immobilized on a flow cell of a CM-5 sensor chip (GE Healthcare, Piscataway, N.J.) via amine coupling. A blank flow cell was used as a negative control for non-specific binding to the sensor surface. […] Dissociation constants were calculated from the association and dissociation rates of the proteins after washing. The experiments were performed in triplicate.
(In SPR one partner is held on a chip, and binding of the other changes the refractive index at the surface.)

The target of a further assay is T2, human recombinant FGF19 (human, UniProt O95750 25-216).
T2 construct: Bought recombinant protein; also called fibroblast growth factor 19
T2 sequence (O95750 25-216 limits assumed): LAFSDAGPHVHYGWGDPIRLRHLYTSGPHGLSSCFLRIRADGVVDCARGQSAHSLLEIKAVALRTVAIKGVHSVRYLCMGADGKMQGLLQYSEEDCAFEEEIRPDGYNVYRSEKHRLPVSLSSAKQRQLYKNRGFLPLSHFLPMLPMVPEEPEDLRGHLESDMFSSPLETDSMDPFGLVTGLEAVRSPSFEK
As to the kind of experiment: SPR, C66 over immobilized FGF19 (FIG. 7B).

In assay [2] the target is B2. The assay can be described thus: SPR, equilibrium binding to immobilized FGFR1 Fc chimera (FIG. 7C). The protocol: as §1
In assay [3] the target is T3, MBP-tagged recombinant human FGFBP3 (MBP-BP3) (human, UniProt P0AEX9 27-392 = MBP, limits assumed).
T3 construct: Bacterially expressed MBP fusion; The order MBP then BP3 follows the pMAL-p2X vector design; also called hBP3
The assay can be described thus: SPR, BP3 over immobilized FGFR1 Fc chimera (FIG. 6B). The protocol: as §1

B1: the figures for the binding result (in assay [1]; in the assay with human recombinant FGF19; in assay [2]) were “no binding (tested: 245 nM)”, “binds” and “no binding (tested: 245 nM)”, respectively.

For B2, the binding result in assay [3] is “no binding (tested: 4, 2, or 1 nM)”.
